Data on 16 molecules can be found in patent US20200095333A1 (published 2020).

Test [1] addresses T1, sCD16A (soluble CD16A, FcgammaRIIIA) (human, UniProt P08637 17-208).
T1 construct: extracellular domain; given only as soluble; used immobilised (SPR), coated, or biotin/HRP-labelled as probe (ELISA); also called CD16 antigen; sCD16A-Biotin
Briefly: sandwich ELISA, CD32B coat, HRP-CD16 probe. (In general: An ELISA detects its analyte on a solid surface through an enzyme-linked reagent.)

Test [2] deals with T2, sCD32B (soluble CD32B, FcgammaRIIB) (human, UniProt P31994 43-217).
T2 construct: extracellular domain; also called soluble CD32B ectodomain
T2 sequence: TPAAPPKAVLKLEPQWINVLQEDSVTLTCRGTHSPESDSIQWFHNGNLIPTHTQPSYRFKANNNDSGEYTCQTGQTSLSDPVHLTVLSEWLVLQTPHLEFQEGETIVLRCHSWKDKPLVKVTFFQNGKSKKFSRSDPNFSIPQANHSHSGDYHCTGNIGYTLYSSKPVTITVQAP
Briefly: sandwich ELISA, CD32B coat, HRP-CD16 probe.

The next test has as its target T3, mCD32B (murine CD32B) (murine, UniProt P08101 30-210).
T3 sequence: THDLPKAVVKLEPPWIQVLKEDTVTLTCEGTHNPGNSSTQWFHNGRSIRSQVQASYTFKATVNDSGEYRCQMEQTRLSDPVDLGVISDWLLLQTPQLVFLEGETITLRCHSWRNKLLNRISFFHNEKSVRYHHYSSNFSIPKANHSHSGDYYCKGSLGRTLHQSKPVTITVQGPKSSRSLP
Briefly: mCD32-hCD16A binding ELISA.

The target in test [3] is T1, sCD16A (soluble CD16A, FcgammaRIIIA). Put plainly: mCD32-hCD16A binding ELISA.
Test [4] has as its target T4, human serum albumin (HSA) (human, UniProt P02768 25-609).
T4 construct: also called human albumin; HRP-human albumin
Briefly: ELISA, HSA coat, biotinylated sCD32B detection.

Test [5] deals with T1, sCD16A (soluble CD16A, FcgammaRIIIA). Briefly: dual ELISA, CD16 coat, biotinylated sCD32B detection.
Test [6] concerns the target T2, sCD32B (soluble CD32B, FcgammaRIIB). The test is described as above.
The target in a further test is T5, soluble CD16A(158F) (human, UniProt P08637 17-208).
T5 construct: extracellular domain; also called CD16A(F158); sCD16A
T5 sequence (P08637 17-208): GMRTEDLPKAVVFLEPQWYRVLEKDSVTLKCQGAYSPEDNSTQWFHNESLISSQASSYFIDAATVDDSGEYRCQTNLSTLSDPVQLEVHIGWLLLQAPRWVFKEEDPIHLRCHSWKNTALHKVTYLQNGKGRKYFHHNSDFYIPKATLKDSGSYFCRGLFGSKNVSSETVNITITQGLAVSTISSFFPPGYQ
Briefly: SPR, HSA immobilised, ABD-DART then 200 nM CD32B and 200 nM CD16A(F158). On the technique in general: SPR reads the build-up and loss of mass on a sensor chip optically.

Test [7] has as its target T4, human serum albumin (HSA). Put plainly: HSA binding class (+ = 0.1-0.4).
Test [8] deals with T4, human serum albumin (HSA). Put plainly: HSA binding class (+++ = 0.7-1.0).
Test [9] concerns the target T4, human serum albumin (HSA). Put plainly: deimmunized ABD ELISA (FIG. 57).
Test [10] has as its target T4, human serum albumin (HSA). Put plainly: albumin binding of ABD variants.
For test [11], the target named is T1, sCD16A (soluble CD16A, FcgammaRIIIA). Briefly: SPR (BIAcore), receptor immobilised, diabody 6.25-200 nM.
Test [12] shares this target. Briefly: sandwich ELISA, CD32B coat, CD16A probe.
In test [13] the target is T2, sCD32B (soluble CD32B, FcgammaRIIB). Put plainly: sandwich ELISA, CD32B coat, CD16A probe.

Broadly, the Kd is the constant that tells how readily two partners part at equilibrium.

T1 sequence (P08637 17-208): as above

B1: product of co-expression of constructs 7 and 8 (pMGX0677+pMGX0678), tetrameric IgG-like diabody (bispecific antibody)
chain 1: EIVLTQSPDFQSVTPKEKVTFTCRTSQSIGTNIHWYQQKPDQSPKLLIKEVSESISGVPSRFSGSGSGTDFTLTINSLEAEDAATYYCQQSNTWPFTFGGGTKVEIKGGGSGGGGQVTLRESGPALVKPTQTLTLTCTFSGFSLSTSGMGVGWIRQPPGKALEWLAHIWWDDDKRYNPALKSRLTISKDTSKNQVVLTMTNMDPVDTATYYCAQINPAWFAYWGQGTLVTVSSLGGCFNRGEC
chain 2: not shown
Regarding B1, the binding result in test [1] and in test [2] was “binds” each time.

B2: Ig-like tetravalent DART (2.4G2-3G8-hKappa / 3G8-2.4G2-hG1) (bispecific antibody)
chain 1: DVQMTQSPSNLAASPGESVSINCKASESISKYLAWYLQKPGKANKLLMYDGSTLQSGIPSRFSGSGSGTDFTLTIRSLEPEDFGLYYCQQHYEYPATFGSGTKLEIKGGGSGGGGQVTLKESGPGILQPSQTLSLTCSFSGFSLRTSGMGVGWIRQPSGKGLEWLAHIWWDDDKRYNPALKSRLTISKDTSSNQVFLKIASVDTADTATYYCAQINPAWFAYWGQGTLVTVSSLGGCGGGSRTVAAPSVFIFPPSDEQLKSGTASVVCLLNNFYPREAKVQWKVDNALQSGNSQESVTEQDSKDSTYSLSSTLTLSKADYEKHKVYACEVTHQGLSSPVTKSFNRGEC
chain 2: not shown
notes: also called Ig DART 1; Ig DART 2
Turning to B2, the binding result (with mCD32B (murine CD32B); in [3]) was “binds” each time.

B3: hCD16-hCD32B ABD-DART (bispecific antibody)
chain 1: DIVMTQSPDSLAVSLGERATINCKASQSVDFDGDSFMNWYQQKPGQPPKLLIYTTSNLESGVPDRFSGSGSGTDFTLTISSLQAEDVAVYYCQQSNEDPYTFGQGTKLEIKGGGSGGGGQVQLVQSGAEVKKPGASVKVSCKASGYTFTNYWIHWVRQAPGQGLEWIGVIDPSDTYPNYNKKFKGRVTMTVVVSTSTAYMELRSLRSDDTAVYYCARNGDSDYYSGMDYWGQGTTVTVSSGGCGGGKVAALKEKVAALKEKVAALKEKVAALKEGGGNS
chain 2: EIVLTQSPDFQSVTPKEKVTFTCRTSQSIGTNIHWYQQKPDQSPKLLIKEVSESISGVPSRFSGSGSGTDFTLTINSLEAEDAATYYCQQSNTWPFTFGGGTKVEIKGGGSGGGGQVTLRESGPALVKPTQTLTLTCTFSGFSLSTSGMGVGWIRQPPGKALEWLAHIWWDDDKRYNPALKSRLTISKDTSKNQVVLTMTNMDPVDTATYYCAQINPAWFAYWGQGTLVTVSSGGCGGGEVAALEKEVAALEKEVAALEKEVAALEKGGGNSLAEAKVLANRELDKYGVSDYYKNLINNAKTVEGVKALIDEILAALP
notes: also called hCD16-hCD32B EK ABD-DART; DART ABD fusion
On to B3, for which the binding result (in [4]; in test [5]; in test [6]; in the test with soluble CD16A(158F)) was “binds” throughout.

B4: product of constructs 1 and 9 (pMGX0669+pMGX0719) (bispecific antibody)
chain 1: EIVLTQSPDFQSVTPKEKVTFTCRTSQSIGTNIHWYQQKPDQSPKLLIKEVSESISGVPSRFSGSGSGTDFTLTINSLEAEDAATYYCQQSNTWPFTFGGGTKVEIKGGGSGGGGQVTLRESGPALVKPTQTLTLTCTFSGFSLSTSGMGVGWIRQPPGKALEWLAHIWWDDDKRYNPALKSRLTISKDTSKNQVVLTMTNMDPVDTATYYCAQINPAWFAYWGQGTLVTVSSLGGC
chain 2: not shown
notes: hinge-Fc at the N-terminus of the heavier chain; also called constructs 9+1; copies: 2 + 2
As to B4, the binding result in test [1] and in test [2] was “binds” in each case.

B5: product of constructs 1 and 10 (pMGX0669+pMGX0718) (bispecific antibody)
chain 1: EIVLTQSPDFQSVTPKEKVTFTCRTSQSIGTNIHWYQQKPDQSPKLLIKEVSESISGVPSRFSGSGSGTDFTLTINSLEAEDAATYYCQQSNTWPFTFGGGTKVEIKGGGSGGGGQVTLRESGPALVKPTQTLTLTCTFSGFSLSTSGMGVGWIRQPPGKALEWLAHIWWDDDKRYNPALKSRLTISKDTSKNQVVLTMTNMDPVDTATYYCAQINPAWFAYWGQGTLVTVSSLGGC
chain 2: not shown
notes: Fc at the N-terminus of the heavier chain; also called constructs 10+1; copies: 2 + 2
With B5, the binding result in test [1] and in test [2] was “binds” throughout.

B6: ABD I65A/N66D/V71A (other)
chain: LAEAKVLANRELDKYGVSDYYKNLADNAKTAEGVKALIDEILAALP
notes: also called 65A/66D/71A
The molecule B6 registered an HSA binding in test [7] of 0.1 to 0.4.

B7: ABD L64G/N66D/V71A (other)
chain: LAEAKVLANRELDKYGVSDYYKNGIDNAKTAEGVKALIDEILAALP
notes: also called 64G/66D/71A
With B7, in [7], the HSA binding was in the range of 0.1 to 0.4.

B8: ABD N66D (other)
chain: LAEAKVLANRELDKYGVSDYYKNLIDNAKTVEGVKALIDEILAALP
B8 registered an HSA binding in [8] of 0.7 to 1.

B9: variant ABD L64A, I65A and D79A (other)
chain: LAEAKVLANRELDKYGVSDYYKNAANNAKTVEGVKALIAEILAALP
Turning to B9, the binding result in test [9] is recorded as “binds”.

B10: ABD N66D/T70S/V71A (ABD (DSA)) (other)
chain: LAEAKVLANRELDKYGVSDYYKNLIDNAKSAEGVKALIDEILAALP
In the case of B10, in test [10], the binding result is recorded as “binds”.

B11: ABD N66E (other)
chain: LAEAKVLANRELDKYGVSDYYKNLIENAKTVEGVKALIDEILAALP
The molecule B11 had an HSA binding in test [8] of 0.7 to 1.

B12: ABD L64A/N66D/V71A (other)
chain: LAEAKVLANRELDKYGVSDYYKNAIDNAKTAEGVKALIDEILAALP
notes: also called 64A/66D/71A
On to B12, for which the HSA binding in test [7] lay in the range of 0.1 to 0.4.

B13: variant ABD N66S, T70S and D79A (other)
chain: LAEAKVLANRELDKYGVSDYYKNLISNAKSVEGVKALIAEILAALP
Turning to B13, in [9], the binding result was “binds”.

B14: h3G8 CMD (covalent monospecific diabody, construct 3) (other)
chain: DIVMTQSPDSLAVSLGERATINCKASQSVDFDGDSFMNWYQQKPGQPPKLLIYTTSNLESGVPDRFSGSGSGTDFTLTISSLQAEDVAVYYCQQSNEDPYTFGQGTKLEIKGGGSGGGGQVTLRESGPALVKPTQTLTLTCTFSGFSLSTSGMGVGWIRQPPGKALEWLAHIWWDDDKRYNPALKSRLTISKDTSKNQVVLTMTNMDPVDTATYYCAQINPAWFAYWGQGTLVTVSSLGGC
modifications: covalent homodimer; interchain disulfide through the C-terminal LGGC cysteines
notes: covalent homodimer diabody; also called h3G8 diabody
Take B14: the affinity in test [11], expressed as Kd, was 18 nM.

B15: product of constructs 11 and 12 (bispecific antibody)
chain 1: not shown
chain 2: DIVMTQSPDSLAVSLGERATINCKASQSVDFDGDSFMNWYQQKPGQPPKLLIYTTSNLESGVPDRFSGSGSGTDFTLTISSLQAEDVAVYYCQQSNEDPYTFGQGTKLEIKGGGSGGGGQVQLVQSGAEVKKPGASVKVSCKASGYTFTNYWIHWVRQAPGQCLEWIGVIDPSDTYPNYNKKFKGRVTMTVVVSTSTAYMELRSLRSDDTAVYYCARNGDSDYYSGMDYWGQGTTVTVSSFNRGEC
notes: C-terminal hinge-Fc; engineered cysteines G105C (2B6 VL) and G44C (2B6 VH); copies: 2 + 2
Regarding B15, the binding result in [1] and in test [2] was “binds” each time.

B16: product of constructs 15 and 16 (pMGX0752+pMGX0753) (bispecific antibody)
chain 1: EIVLTQSPDFQSVTPKEKVTFTCRTSQSIGTNIHWYQQKPDQSPKLLIKEVSESISGVPSRFSGSGSGTDFTLTINSLEAEDAATYYCQQSNTWPFTFGGGTKVEIKGGGSGGGGQVTLRESGPALVKPTQTLTLTCTFSGFSLSTSGMGVGWIRQPPGKALEWLAHIWWDDDKRYNPALKSRLTISKDTSKNQVVLTMTNMDPVDTATYYCAQINPAWFAYWGQGTLVTVSSFNRGEC
chain 2: DIVMTQSPDSLAVSLGERATINCKASQSVDFDGDSFMNWYQQKPGQPPKLLIYTTSNLESGVPDRFSGSGSGTDFTLTISSLQAEDVAVYYCQQSNEDPYTFGQGTKLEIKGGGSGGGGQVQLVQSGAEVKKPGASVKVSCKASGYTFTNYWIHWVRQAPGQGLEWIGVIDPSDTYPNYNKKFKGRVTMTVVVSTSTAYMELRSLRSDDTAVYYCARNGDSDYYSGMDYWGQGTTVTVSSVEPKSC
notes: Hu2B6VL-Hu3G8VH-FNRGEC and Hu3G8VL-Hu2B6VH-VEPKSC; also called construct 15/16 combination
Consider B16, for which the binding result in test [12] and in test [13] was “binds” each time.
